The text below walks through data of article PMC10542384.

B1: HA-RNF111 wild type (HA-RNF111^WT) in RNF111 KO U2OS cells [not stated] / Arkadia-like 1 (ARKL1) [human (endogenous in U2OS)] (parent)
chain 1: MSQWTPEYNELYTLKVDMKSEIPSDAPKTQESLKGILLHPEPIGAAKSFPAGVEMINSKVGNEFSHLCDDSQKQEKEMNGNQQEQEKSLVVRKKRKSQQAGPSYVQNCVKENQGILGLRQHLGTPSDEDNDSSFSDCLSSPSSSLHFGDSDTVTSDEDKEVSVRHSQTILNAKSRSHSARSHKWPRTETESVSGLLMKRPCLHGSSLRRLPCRKRFVKNNSSQRTQKQKERILMQRKKREVLARRKYALLPSSSSSSENDLSSESSSSSSTEGEEDLFVSASENHQNNPAVPSGSIDEDVVVIEASSTPQVTANEEINVTSTDSEVEIVTVGESYRSRSTLGHSRSHWSQGSSSHASRPQEPRNRSRISTVIQPLRQNAAEVVDLTVDEDEPTVVPTTSARMESQATSASINNSNPSTSEQASDTASAVTSSQPSTVSETSATLTSNSTTGTSIGDDSRRTTSSAVTETGPPAMPRLPSCCPQHSPCGGSSQNHHALGHPHTSCFQQHGHHFQHHHHHHHTPHPAVPVSPSFSDPACPVERPPQVQAPCGANSSSGTSYHEQQALPVDLSNSGIRSHGSGSFHGASAFDPCCPVSSSRAAIFGHQAAAAAPSQPLSSIDGYGSSMVAQPQPQPPPQPSLSSCRHYMPPPYASLTRPLHHQASACPHSHGNPPPQTQPPPQVDYVIPHPVHAFHSQISSHATSHPVAPPPPTHLASTAAPIPQHLPPTHQPISHHIPATAPPAQRLHPHEVMQRMEVQRRRMMQHPTRAHERPPPHPHRMHPNYGHGHHIHVPQTMSSHPRQAPERSAWELGIEAGVTAATYTPGALHPHLAHYHAPPRLHHLQLGALPLMVPDMAGYPHIRYISSGLDGTSFRGPFRGNFEELIHLEERLGNVNRGASQGTIERCTYPHKYKKVTTDWFSQRKLHCKQDGEEGTEEDTEEKCTICLSILEEGEDVRRLPCMHLFHQVCVDQWLITNKKCPICRVDIEAQLPSES
chain 2: MKMEEAVGKVEELIESEAPPKASEQETAKEEDGSVELESQVQKDGVADSTVISSMPCLLMELRRDSSESQLASTESDKPTTGRVYESDSSNHCMLSPSSSGHLADSDTLSSAEENEPSQAETAVEGDPSGVSGATVGRKSRRSRSESETSTMAAKKNRQSSDKQNGRVAKVKGHRSQKHKERIRLLRQKREAAARKKYNLLQDSSTSDSDLTCDSSTSSSDDDEEVSGSSKTITAEIPDGPPVVAHYDMSDTNSDPEVVNVDNLLAAAVVQEHSNSVGGQDTGATWRTSGLLEELNAEAGHLDPGFLASDKTSAGNAPLNEEINIASSDSEVEIVGVQEHARCVHPRGGVIQSVSSWKHGSGTQYVSTRQTQSWTAVTPQQTWASPAEVVDLTLDEDSRRKYLL

In this assay the parent is B1. Put plainly: proximity ligation assay (PLA). The conditions noted are these: with Arkadia-like 1 (ARKL1) [human (endogenous in U2OS)]; RNF111 KO U2OS cells complemented with vector (n = 19), HA-RNF111WT (n = 18), HA-RNF111 K237/238R (n = 28); antibodies to HA and ARKL1; parent: 7.5; read off a plot.
chain 1 K237R K238R: the response (PLA foci per cell) was found to be 3.2.
